Values quoted from earlier work as cited in publication PMC4616163, “Inverse relationship between chitobiase and transglycosylation activities of chitinase-D from Serratia proteamaculans revealed by mutational and biophysical analyses” (Scientific Reports, 2015).

Set-up: method as in PMID 11160110, PMID 18368288
Settings: other chitinases, literature

B1: SmChiA: mesophilic chitinase (protein, UniProt P07254 24-563, looked up)
Chitinase A: AAPGKPTIAWGNTKFAIVEVDQAATAYNNLVKVKNAADVSVSWNLWNGDAGTTAKILLNGKEAWSGPSTGSSGTANFKVNKGGRYQMQVALCNADGCTASDATEIVVADTDGSHLAPLKEPLLEKNKPYKQNSGKVVGSYFVEWGVYGRNFTVDKIPAQNLTHLLYGFIPICGGNGINDSLKEIEGSFQALQRSCQGREDFKVSIHDPFAALQKAQKGVTAWDDPYKGNFGQLMALKQAHPDLKILPSIGGWTLSDPFFFMGDKVKRDRFVGSVKEFLQTWKFFDGVDIDWEFPGGKGANPNLGSPQDGETYVLLMKELRAMLDQLSAETGRKYELTSAISAGKDKIDKVAYNVAQNSMDHIFLMSYDFYGPFDLKNLGHQTALNAPAWKPDTAYTTVNGVNALLAQGVKPGKVVVGTAMYGRGWTGVNGYQNNIPFTGTATGPVKGTWKNGIVDYRQIAGQFMSGEWQYTYDATAEAPYVFKPSTGDLITFDDARSVQAKGKYVLDKQLGGLFSWEIDADNGDILNSMNASLGNSAGVQ
Question: For B1, which Tm is on record?
Answer: The Tm was 64.2 °C.
